Experimental data from PMC7111318.

Biological target: Echo 6 virus full particle (strain SJZ-366) (Echovirus 6 strain SJZ-366)
Experiment: SPR

| Substance | Kd |
| --- | --- |
| Human CD55 soluble protein (extracellular domain) (from UniProt P08174-1 35-285) (domain or fragment) | 375 nM |
| Human FcRn soluble protein (FCGRT extracellular domain + β2 m) (from UniProt P61769 21-119) (complex) | 242 nM |
